Test results reported in PMC3399880, “Genomic Organisation, Embryonic Expression and Biochemical Interactions of the Zebrafish Junctional Adhesion Molecule Family of Receptors” (PLoS ONE, 2012).
Values belong to the molecule of their own block, whether it stands above or below them.

B1: zebrafish Jamc ectodomain (extracellular IgSF domains) fused to rat Cd4 domains 3 and 4 (domain or fragment, UniProt A3KPA0 24-235, looked up)
chain: VLLKSTNSKPWVNEFESIELSCMIESITTTKPRIEWKKIKNGDPSYVYFDNQISGDLERRAKIREPATLVILNATRSDSADYRCEVTAPNDQKSFDEILISLTVRVKPVVPRCSVPKSIPVGKPAELHCLEDEGYPKSQYQWFRNKEEIPLDPKSSPKFFNSTYTLDGEMGTLKFSAVRKEDAGEYYCRAKNEAGISECGPQMMEVYDINIA
notes: Jamc (official symbol jam3b), zebrafish orthologue of JAM-C; extracellular IgSF domains; Stood both as analyte and as ligand (6H and bio forms); also called Jam3b; JAM-C orthologue; source: mammalian expression system, purified; analyte resolved by gel filtration immediately before use; not shown: rat Cd4 domains 3 and 4, C-terminal, kept
B2: zebrafish Jamb ectodomain (extracellular IgSF domains) fused to rat Cd4 domains 3 and 4 (domain or fragment, UniProt A0A0R4IGV4 19-226, looked up)
chain: VTVSSRNPKVEVHEFSDAELSCEFKTEKDTNPRIEWKRKDKEKDVSFVYYGERFVGPFQDRADIEGATVRLRRVTQADAGEYRCEVSAPSDSISLGETNVTLRVLVPPQTPSCDVPSSALTGSQVELRCRDRHSIPPAVYTWYKDNRALPIRHPNATYTVNEFTGVLIPQSHYNPGTVCQHCMYHPNYHIPNTQLTTTFQTHDLNVAA
notes: Jamb (official symbol jam2a), zebrafish orthologue of JAM-B; extracellular IgSF domains; Stood both as analyte and as ligand (6H and bio forms); also called Jam2a; JAM-B orthologue; source: mammalian expression system, purified; analyte resolved by gel filtration immediately before use; not shown: rat Cd4 domains 3 and 4, C-terminal, kept

What was measured:
Experiment in all cases: SPR; systematic all-against-all screen of the six ectodomains, each as analyte and as ligand; dissociation phase of three concentrations of purified analyte averaged and fitted to a first-order decay curve; t1/2 = ln 2/kd; 28°C; half-lives in the text are the average of both orientations; t1/2 <=0.1 s not quantifiable (10 Hz instrument)
[1] = biological target: zebrafish Jamc ectodomain (extracellular IgSF domains) fused to rat Cd4 domains 3 and 4 (zebrafish) (UniProt A3KPA0)
[2] = biological target: zebrafish Jamc2 ectodomain (extracellular IgSF domains) fused to rat Cd4 domains 3 and 4 (zebrafish)
[3] = biological target: the molecule itself
[4] = biological target: B1; conditions: both partners purified

t1/2 (half-life of the complex) [1]: 0.26 s
Molecule: zebrafish Jamb2 ectodomain (extracellular IgSF domains) fused to rat Cd4 domains 3 and 4 (from UniProt B0V233 1-306) (domain or fragment)

t1/2 (half-life of the complex) [2]: 7 s
Molecule: zebrafish Jamb ectodomain (extracellular IgSF domains) fused to rat Cd4 domains 3 and 4 (from UniProt A0A0R4IGV4 19-226) (domain or fragment)

t1/2 (half-life of the complex) [2]: 0.11 s
Molecule: zebrafish Jamc2 ectodomain (extracellular IgSF domains) fused to rat Cd4 domains 3 and 4 (from UniProt A0ACD6B6E9 1-301) (domain or fragment)

Molecule: B1
t1/2 (half-life of the complex) [3]: 0.67 s

Molecule: B2
t1/2 (half-life of the complex) [4]: ~1.63 s
